Results on two molecules are retold here after patent US20230257452A1 (GTINVENT, published 2023).

One assay has as its target dGA (tau 297-390) (human, UniProt P10636 614-707). As to the kind of experiment: ELISA. The source says: The plates were blocked with 2% MPBS and scAb samples added at desired starting concentrations and double diluted across the plate. Binding was detected using anti-Human C Kappa HRP conjugated secondary antibody and the resulting immunoreaction was developed and absorbance values measured as described above.

Assay [1] deals with T1, full length human tau protein (2N4R, isoform Tau-F, 441 amino acids) (human, UniProt P10636 1-758).
T1 construct: also called hT40; htau40
Description: ELISA, hT40 coated, scAb titrated. In general terms: An ELISA detects its analyte on a solid surface through an enzyme-linked reagent.

Assay [2] concerns the target T2, dGAE (tau 297-391) (human, UniProt P10636 614-708).
T2 construct: also called dGAE95
As to the kind of experiment: sandwich ELISA, 423 mAb capture, dGAE titrated, scAb at 10 ug/ml as detector [cont) G-I]. How it is done: (§1) Following overnight agitation, one third of each sample was kept aside as ‘total’ and the rest was spun down at 16000×g for 30 min and separated into ‘supernatant’ and ‘pellet’. The pellet was then resuspended in half the original volume for further experiments. […] All double dilutions were done in final volumes of 100 μl. This was left to incubate on lab bench for 1 h followed by the addition of test scAbs at 10 μg/ml.

A further assay addresses T3, dGAE aggregates (human, UniProt P10636 614-708, limits assumed).
T3 construct: 100 µM dGAE aggregated with DTT at 37 °C, 700 rpm, 24 h; also called aggregated dGAE
As to the kind of experiment: sandwich ELISA, 423 mAb capture, aggregation sample titrated, scAb at 10 ug/ml as detector [cont) G-I]. As for the experimental part:
as §1

The target of assay [3] is T4, mouse tau (isoform Tau-A) (mouse, UniProt P10637 2-733).
T4 construct: endogenous tau in mouse brain homogenate or plasma; also called endogenous mouse tau
Description: sandwich ELISA on mouse brain homogenates (incl. wild type), S1D12 mAb capture.

Assay [4] has as its target T1, full length human tau protein (2N4R, …). As to the kind of experiment: sandwich ELISA, S1D12 mAb capture, hT40 titrated, detection scAb, chemiluminescent. How it is done: (§2) Full length tau (hT40), at 1 μg/ml starting concentration was added to designated wells and double diluted across rest of the plates and left to incubate at R/T for 1 h. A series of detection scAbs with varying epitope recognition properties were added at 10 μg/ml to designated wells (FIG. 22). For colourimetric detection HRP conjugated anti-HuCk secondary antibody was used and the resulting immunoreaction was developed and absorbance at 450 nm measured as described previously. Cut-off point for a positive binding event was an absorbance value of 0.3 following background subtraction. In order to enhance the assay sensitivity, a chemiluminescent detection method was adopted where 50 μL SuperSignal ELISA Femto Substrate (Thermo Scientific) was added to each well following incubation with anti-HuCK HRP antibody and subsequent washing. The luminescence was read using Clariostar Plus microplate reader. A further modification to this protocol was done where various detection scAbs were directly conjugated with HRP and detected using chemiluminescent protocol as before.

Assay [5] shares this target. Description: sandwich ELISA, S1D12 mAb capture, hT40 titrated, detection scAb at 10 ug/ml, colourimetric. How it is done: as §2
Assay [6] has as its target T2, dGAE (tau 297-391). As to the kind of experiment: tau-tau immunoassay: scAb preincubated with 100 nM dGAE; blocked ligand: plate-bound dGA (1000 nM); bound dGAE detected with E2E8. How it is done:
The adapted method is as follows: dGA (1000 nM) was adsorbed to a Nunc 96-well MaxiSorp plate and incubated for 1 h at 37° C. Plates were subsequently washed 3 times with PBST which was performed after each 1 h incubation. The plates were blocked with 2% (w/v) dried milk powder in PBS for 1 h at 37° C. […] The secondary antibody used was HRP-conjugated Anti-mouse IgG (1:1000 dilution, Sigma) and incubated at RT for 1 h. The plate was subsequently developed, and readings taken at absorbance 450 nm.

T1 sequence (P10636 other isoform, or with tags, fused parts or gaps limits assumed): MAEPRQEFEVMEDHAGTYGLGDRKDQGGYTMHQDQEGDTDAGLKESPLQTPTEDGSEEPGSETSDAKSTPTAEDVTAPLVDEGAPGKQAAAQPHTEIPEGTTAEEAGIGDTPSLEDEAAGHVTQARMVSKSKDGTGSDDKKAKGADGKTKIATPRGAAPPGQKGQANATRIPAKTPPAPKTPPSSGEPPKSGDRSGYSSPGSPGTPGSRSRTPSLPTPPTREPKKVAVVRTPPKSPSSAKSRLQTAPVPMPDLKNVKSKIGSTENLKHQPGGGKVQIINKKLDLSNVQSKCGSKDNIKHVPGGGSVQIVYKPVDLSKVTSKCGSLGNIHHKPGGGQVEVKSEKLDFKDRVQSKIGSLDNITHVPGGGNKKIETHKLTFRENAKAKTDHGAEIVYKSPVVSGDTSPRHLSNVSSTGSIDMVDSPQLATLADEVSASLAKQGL
T2 sequence (P10636 614-708 limits assumed): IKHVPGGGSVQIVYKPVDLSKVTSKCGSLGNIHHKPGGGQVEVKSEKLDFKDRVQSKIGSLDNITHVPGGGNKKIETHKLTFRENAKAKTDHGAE
Chain of dGA (tau 297-390) (P10636 614-707 limits assumed): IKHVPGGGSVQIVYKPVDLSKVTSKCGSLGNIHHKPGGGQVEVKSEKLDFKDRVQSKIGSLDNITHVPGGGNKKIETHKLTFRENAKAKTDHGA
T3 sequence (P10636 614-708 limits assumed): as the sequence (P10636 614-708 limits assumed) above
T4 sequence (P10637 other isoform, or with tags, fused parts or gaps limits assumed): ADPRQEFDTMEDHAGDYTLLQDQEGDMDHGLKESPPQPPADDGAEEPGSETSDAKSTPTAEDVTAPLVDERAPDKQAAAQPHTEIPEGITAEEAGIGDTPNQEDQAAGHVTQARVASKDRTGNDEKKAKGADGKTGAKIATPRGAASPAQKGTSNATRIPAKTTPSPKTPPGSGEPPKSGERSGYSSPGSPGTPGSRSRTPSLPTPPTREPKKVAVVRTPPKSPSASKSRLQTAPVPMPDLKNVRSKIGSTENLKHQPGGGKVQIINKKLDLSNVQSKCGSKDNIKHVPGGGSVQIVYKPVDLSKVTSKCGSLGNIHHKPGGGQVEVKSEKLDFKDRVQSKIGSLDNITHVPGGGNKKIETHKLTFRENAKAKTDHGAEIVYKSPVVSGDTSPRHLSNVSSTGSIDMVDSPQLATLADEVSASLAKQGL

B1: CB3 scAb (scFv)
scFv: QVQLQESGPSLVKPSQTLSLTCTVSGFSLSSVAVNWVRQAPGKVPEWLGGIISNGGTGYNPALKSRLSITRDTSKSQVSLALTHVTTEDTAVYYCGRGVEWEGSMDYLGPGLLVTVSSEGKSSGSGSETKVDDQSVLTQPSSVSGFLGQRVTITCSGSSSNVGAGSYVGWYQQVPGSGLRILIYGATKRASGLPDRFSGSRSGNTATLTISSLQAEDEADYYCVSYQTDFTLVFGSGTRLTVLG
notes: not shown: human C kappa domain and hexa-His tag of the scAb format
For B1, the binding result (with dGA (tau 297-390); in assay [1]; with dGAE (tau 297-391) [2]; with dGAE aggregates) was “binds” throughout.

B2: S1G2 scAb (scFv)
scFv: QVQLQESGPSLVKPSQTLSLTCTVSGFSLTSNSVGWVRQAPGKAPEWVAGIDTDGEEGYNPALNSRLSITRDTSKSQVSLSLSSVTSEDTAVYYCGRSYRADGLAYGYVQAIDYWGPGLLVTVSSEGKSSGASGESKVDDQAVVTQPSSVSGSLGQRVSITCSGSFIGISSVGWFQQLPGSGLRTIIVASDGRPSGVPDRFSMSKSGNTATLTISSLQAEDEADYFCGSSDRTPYTGVFGSGTRLTVLG
notes: as for B1
For the molecule B2, the binding result in assay [3] is on record as “binds”. Also, the “LoD (ng/ml) chemiluminescence detection” value in assay [4] was 0.12 ng/mL. The “LoD (ng/ml) colourimetric detection” value in assay [5] was 2 ng/mL. The same molecule showed a B50 with dGAE (tau 297-391) [6] of 65 nM.
